Assay results published in article PMC8244865, “Recruitment of phospholipase Cγ1 to the non-structural membrane protein pK15 of Kaposi Sarcoma-associated herpesvirus promotes its Src-dependent phosphorylation” (PLoS Pathogens, 2021).

Tests used:
Assay type in all cases: binding
PLCγ1 cSH2 = biological target: T1, PLCγ1 cSH2 (Homo sapiens, UniProt P19174); experiment: 1H,15N HSQC NMR titration, PLCγ1 cSH2; details: 1H-15N HSQC titration, 600 MHz, 298 K, 100 μM protein, 100 mM MES, 150 mM NaCl, 3 mM TCEP, pH 6.5
T1 construct: cSH2 (668–790): 166 ± 30 nM; thioredoxin (pETM22 fusion, purified on Ni column) (N, cleaved yes); made in house; host or cells: E. coli BL21(DE3)
Experimental: Fig 5 Affinity of pK15 peptide for PLCγ1 tSH2 or individual SH2 domains. (A) Binding curves of several PLCγ1 fragments in the presence of 200 nM 5,6-FAM-labelled pK15 (12mer). All measurements were performed in triplicate. […] (B and C) Overlay of ^1H,^15N HSQC NMR spectra of nSH2 (B) and cSH2 (C) alone (in yellow) and in the presence of 2 molar equivalents of the pK15 12mer peptide (blue), measured with a 600 MHz spectrometer at 298 K. The protein concentration was 100 μM and the buffer contained 100 mM MES, 150 mM NaCl, 3 mM TCEP, pH 6.5. (D and E) Excerpts from ^1H-^15N HSQC spectra of nSH2 (D) and cSH2 (E) upon addition of increasing concentrations of the pK15 12mer peptide.
Next, we used Nuclear Magnetic Resonance (NMR) spectroscopy to further compare the interaction of the phosphorylated pK15 12mer to the isolated nSH2 and cSH2 domains (Fig 5B–5E). We recorded ^1H-^15N HSQC spectra of each of the two domains in the presence of increasing concentrations of the pK15 peptide. […] In light of this, it is conceivable that the preference of pK15 CT for cSH2 in vivo may be determined by kinetic rather than thermodynamic factors.
NMR experiments were recorded at 298 K on a 600-MHz Bruker Avance III-HD spectrometer equipped with an inverse HCN cryogenic probehead (nitrogen-cooled) and running Topspin 3.2 software. […] NMR data were processed in Topspin and analysed in CcpNmr Analysis v2.4 [74].

PLCγ1 SA R586L or R694L = experiment: GST-pulldown, PLCγ1 SA R586L or R694L; details: phosphorylated, HEK 293T, versus WT
Experimental: (§1) Fig 3 Contribution of individual PLCγ1 SH2 domains to the interaction with phosphorylated pK15. The pK15 CT fused to GST, its Y^481F mutant, or GST alone were bound to glutathione beads, phosphorylated in vitro (+) or left unphosphorylated (-), and a GST pulldown was performed 32h after transfection into HEK-293T cells of expression vectors for S-tagged full-length PLCγ1 (FL) (A) or PLCγ1 SA (B) containing the indicated mutations. (C) pK15 CT WT, its Y^481F mutant or GST were bound to glutathione beads, phosphorylated in vitro (+) or left unphosphorylated (-), and used for a GST pulldown assay 32h after transfecting HEK 293T cells with expression vectors for S-tagged individual PLCγ1 nSH2 or cSH2 domains. […]
(§2) HEK293T cells were washed once with cold PBS 30 hours after transfection, lysed in IP buffer (50 mM Tris pH7.6, 60 mM NaCl, 6.25 mM EDTA, 1% (v/v) glycerol, 0.04% (v/v) NP-40) on ice for 30 minutes, sonicated shortly and cleared by centrifugation for 10 minutes at 20.000g, 4°C. […] Beads were then washed 5 times in 500 μl IP buffer (or for purified proteins IP buffer with 200 mM NaCl), suspended in 10 μl of 5x Laemmli sample buffer (60 mM Tris pH6.8, 24% (v/v) glycerol, 2% (v/v) SDS, 5% (v/v) β-mercaptoethanol, 0.01% Bromphenol Blue) and analysed by western blot.

PLCγ1 SA R586L+R694L = experiment: GST-pulldown, PLCγ1 SA double mutant; details: phosphorylated; HEK 293T
Experimental: as §1, §2

T1 sequence (P19174 668-790): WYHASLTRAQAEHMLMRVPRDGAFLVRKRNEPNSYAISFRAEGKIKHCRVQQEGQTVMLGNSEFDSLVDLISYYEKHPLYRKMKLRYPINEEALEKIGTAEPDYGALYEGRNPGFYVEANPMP

Molecule	NMR exchange regime (PLCγ1 cSH2)	binding of mutants (GST-pulldown) (PLCγ1 SA R586L or R694L)	binding of double mutant (GST-pulldown) (PLCγ1 SA R586L+R694L)
DDLpYEEVLFPRN [pK15 12mer, phosphorylated peptide representing the last 12 amino acids of pK15 CT (DDLp…)]	fast exchange regime		
pK15 CT^WT: pK15 cytoplasmic tail fused to GST at its N-terminal end, phosphorylated in vitro by Src (protein, tyrosine-phosphorylated in vitro by Src; sites not stated for this construct; left off: GST, N-terminal, kept) SQLLNEVELQEVNRDPPNVFGYASILVSGAEESREPSPQPDQSGMSILRVDGGSAFRIDTAQAATQPTDDLYEEVLFPRN		strongly reduced binding	completely eliminated the binding
